The record followed here is US20220089663A1, “PROTEINS AND FLUOROPHORE-CONTAINING COMPOUNDS SELECTIVE FOR NaV1.7” (MEMORIAL SLOAN KETTERING CANCER CENTER, priority 2019, published 2022).

Some targets named below: Cav2.2; Nav1.8; hNav1.1 (human), P35498; Cav1.1; hNav1.2 (human), Q99250; Nav1.9; hNav1.5 (human), Q14524; hNav1.3 (human), Q9NY46; Kv2.1; hNav1.4 (human), P35499; Cav1.3.
Experiment in all cases: cell-based or functional assay
Test [1] addresses hNav1.7 (human), Q15858.
In test [2] the target is hNav1.7 (human), Q15858. This is another data set of the same source.
In test [3] the target is hNav1.6 (human), Q9UQD0.
Another test deals with T1, hERG, Q12809.
T1 chain: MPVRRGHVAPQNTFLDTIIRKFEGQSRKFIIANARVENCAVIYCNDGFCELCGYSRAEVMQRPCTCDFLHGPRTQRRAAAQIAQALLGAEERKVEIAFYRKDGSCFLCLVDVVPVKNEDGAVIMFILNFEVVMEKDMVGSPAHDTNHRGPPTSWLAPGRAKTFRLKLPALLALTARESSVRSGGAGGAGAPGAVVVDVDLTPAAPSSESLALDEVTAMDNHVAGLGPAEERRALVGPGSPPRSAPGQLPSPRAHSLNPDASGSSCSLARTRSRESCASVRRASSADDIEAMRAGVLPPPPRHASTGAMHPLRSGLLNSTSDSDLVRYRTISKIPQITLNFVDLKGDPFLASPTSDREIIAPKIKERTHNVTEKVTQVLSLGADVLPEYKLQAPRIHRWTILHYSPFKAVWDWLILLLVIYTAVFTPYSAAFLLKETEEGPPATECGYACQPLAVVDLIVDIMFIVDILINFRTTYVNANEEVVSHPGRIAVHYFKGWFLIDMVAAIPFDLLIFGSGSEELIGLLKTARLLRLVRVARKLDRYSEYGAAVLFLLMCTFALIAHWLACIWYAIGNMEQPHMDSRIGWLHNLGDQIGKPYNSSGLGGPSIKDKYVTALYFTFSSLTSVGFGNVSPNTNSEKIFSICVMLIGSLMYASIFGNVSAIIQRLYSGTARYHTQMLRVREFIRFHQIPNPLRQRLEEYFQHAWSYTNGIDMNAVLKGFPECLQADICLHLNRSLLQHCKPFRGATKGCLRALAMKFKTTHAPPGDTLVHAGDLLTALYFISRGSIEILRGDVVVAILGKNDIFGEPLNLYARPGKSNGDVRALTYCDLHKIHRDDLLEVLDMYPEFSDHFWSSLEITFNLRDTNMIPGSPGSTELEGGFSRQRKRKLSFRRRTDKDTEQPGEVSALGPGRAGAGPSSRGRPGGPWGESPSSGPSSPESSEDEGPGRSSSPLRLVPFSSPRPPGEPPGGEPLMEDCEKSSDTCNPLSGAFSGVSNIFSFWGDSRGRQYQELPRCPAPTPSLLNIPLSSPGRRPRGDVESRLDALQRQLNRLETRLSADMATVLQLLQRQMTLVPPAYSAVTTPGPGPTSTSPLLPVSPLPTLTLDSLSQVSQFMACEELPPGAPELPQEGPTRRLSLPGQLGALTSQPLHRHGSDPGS

In test [4] the target is hNav1.6 (human), Q9UQD0. The source holds these as a separate data set.

Like-named read-outs stand apart in the source and are kept apart here.

The term IC50 denotes the point on the concentration scale where inhibition reaches its midpoint. Lower therefore signals greater potency in that assay.

B1: Hsp1a-FL (peptide)
peptide: YCQKFLWTCDSERPCCEGLVCRLWCKIN
modifications: not checked
B1 showed an IC50, automated whole-cell patch clamp in the test with hNav1.7 (human), Q15858 [1] of 62 nM.

B2: Hs1a (peptide)
peptide: GNDCLGFWSACNPKNDKCCANLVCSSKHKWCKGKL
modifications: not checked
With B2, the IC50, automated patch clamp with hNav1.7 (human), Q15858 [2] worked out at 26.9 nM; in the test with hNav1.6 (human), Q9UQD0 [3], 19.2 nM; with hNav1.1 (human), P35498 it was 19.4 nM; with hNav1.7 (human), Q15858 [1], 45.7 nM; with hNav1.2 (human), Q99250, 82.2 nM; with hNav1.6 (human), Q9UQD0 [4] it was 168 nM. In addition, the IC50, automated patch clamp in the test with hNav1.5 (human), Q14524 was above 3000 nM; with hNav1.3 (human), Q9NY46, 107 nM; with hNav1.4 (human), P35499, above 3000 nM. In addition, the IC50 was above 3000 nM with Cav2.2; above 3000 nM with hERG, Q12809; above 3000 nM in the test with Nav1.8; above 3000 nM in the test with Cav1.1; above 3000 nM in the test with Nav1.9; above 3000 nM in the test with Kv2.1. Also, the IC50 with Cav1.3 is above 3000 nM.

B3: Hs1a-FL (peptide)
peptide: GNDCLGFWSACNPKNDKCCANLVCSSKHKWCKGKL
modifications: not checked
Take B3: the IC50, patch clamp on HEK293 cells is 19.4 nM with hNav1.1 (human), P35498; 26.9 nM with hNav1.7 (human), Q15858 [1]; 81.2 nM with hNav1.2 (human), Q99250; 19.2 nM with hNav1.6 (human), Q9UQD0 [4]; above 3000 nM with hNav1.5 (human), Q14524; 107 nM in the test with hNav1.3 (human), Q9NY46. The IC50, patch clamp on HEK293 cells with hNav1.4 (human), P35499 was above 3000 nM.
